Columns and labels:
Experiment in all cases: purified protein
Type in all cases: biochemical, Aureobasidium melanogenum
Settings in all cases: standard assay: 100 mM Na2HPO4-citric acid buffer, pH 5.0, 40 °C
purified protein [1] = substrate: CCCOC(=O)c1cc(O)c(O)c(O)c1
purified protein [2] = substrate: COC(=O)c1cc(O)c(O)c(O)c1
purified protein [3] = substrate: O=C(O[C@@H]1Cc2c(O)cc(O)cc2O[C@@H]1c1cc(O)c(O)c(O)c1)c1cc(O)c(O)c(O)c1
purified protein [4] = substrate: O=C(O[C@@H]1Cc2c(O)cc(O)cc2O[C@@H]1c1ccc(O)c(O)c1)c1cc(O)c(O)c(O)c1
purified protein [5] = substrate: O=C(O[C@@H]1Cc2c(O)cc(O)cc2O[C@H]1c1cc(O)c(O)c(O)c1)c1cc(O)c(O)c(O)c1

B1: TanA (Aureobasidium melanogenum) (protein)
chain: SKDCSKATFQKVIPSNSTFNYVTKVAEGGTFTDAEANANATGLPEGCAVSVKVPTPGNSSYNMAIYMPNKWNSRIITTGNGGYGGFTNWQDLGQYSHYGFSAITTDTGHFNPNVLDSTFALNKGSLENWGWRAMHGSVLVGKALSAAYYGQTHKFSYYSGCSTGGRQGLKEMQVSPDAFDGVFVGAPAWWIPHLSIWTSQATLANLPQNSDHHISAALANVINDEILKQCDPQDGVTDNVIMNPAGCVFNPLTLLCEGAANASACITRPQLDTLYKALHDWTYFDGTLIFPVPSLGTPLVAYIGDSPIPNPMGTGAIEHMLLNTTEPYDWSTFNESVVRLSEAIDPGHGTPDNYDLSTFQKRGGKVIHWHGEADPIIPFRSSSYFYSQVASSVAPHDIEMDSFYKFFPIAGMSHCSGSQYSPWYIAGATQPLTNVSHGVPGFDDAQHNGLLALMRWVENGTAPEQLVATKYNNDDPTKGVYRQRPLCPFPKQPIYTHGNVDSASSWKCS
notes: codon-optimised, signal peptide (first 19 of 528 residues) removed; 6xHis tag kept; secreted by Yarrowia lipolytica, Ni-IDA purified
- Km (purified protein [1]): 1710 µM
- Km (purified protein [2]): 2810 µM
- Km (purified protein [3]): 2520 µM
- Km (purified protein [4]): 2130 µM
- Km (purified protein [5]): 1860 µM
